Results from US20090318349.

Columns and labels:
[1] = target: wild type human growth hormone, P01241
Sequence of wild type human growth hormone, P01241 (P01241 27-217): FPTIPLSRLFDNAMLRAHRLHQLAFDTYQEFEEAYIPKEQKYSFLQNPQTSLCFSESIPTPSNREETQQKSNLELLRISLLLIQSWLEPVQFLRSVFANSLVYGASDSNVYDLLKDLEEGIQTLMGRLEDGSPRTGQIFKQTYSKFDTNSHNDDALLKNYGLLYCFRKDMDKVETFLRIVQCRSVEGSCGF

Sequence of hGHQ141N, P01241 (P01241 27-217 Q167N): as the sequence (P01241 27-217) above, with Q141N counted along it
Sequence of hGHQ40N, P01241 (P01241 27-217 Q66N): as the sequence (P01241 27-217) above, with Q40N counted along it

Row | Protein | Activity towards hGHQ141N (RFU/sec/µg) (hGHQ141N, P01241) | Activity towards hGHQ40N (RFU/sec/µg) (hGHQ40N, P01241) | hGH conv. rate (%) [1] | other results
1 | mature mTGase from Streptoverticillium ladakanum (protein) DSDERVTPPAEPLDRMPDPYRPSYGRAETIVNNYIRKWQQVYSHRDGRKQQMTEEQREWLSYGCVGVTWVNSGQYPTNRLAFAFFDEDKYKNELKNGRPRSGETRAEFEGRVAKDSFDEAKGFQRARDVASVMNKALENAHDEGAYLDNLKKELANGNDALRNEDARSPFYSALRNTPSFKDRNGGNHDPSKMKAVIYSKHFWSGQDRSGSSDKRKYGDPEAFRPDRGTGLVDMSRDRNIPRSPTSPGESFVNFDYGWFGAQTEADADKTVWTHGNHYHAPNGSLGAMHVYESKFRNWSDGYSDFDRGAYVVTFVPKSWNTAPDKVKQGWP | 0.63 RFU/sec/µg | 3.55 RFU/sec/µg | – | HPLC peak area of product-Q40 (hGHQ141N, P01241): area 127; Q141N (remaining substrate, normalized to 100) (normalized to 100) (hGHQ141N, P01241): 90; product-Q40 (normalized to 100) (normalized to 100) (hGHQ141N, P01241): 10; HPLC peak area of product-Q141 (hGHQ40N, P01241): area 1238; Q40N (remaining substrate, normalized to 100) (normalized to 100) (hGHQ40N, P01241): 23; product-Q141 (normalized to 100) (normalized to 100) (hGHQ40N, P01241): 77
2 | Met-mTGase from S. ladakanum (protein) MDSDERVTPPAEPLDRMPDPYRPSYGRAETIVNNYIRKWQQVYSHRDGRKQQMTEEQREWLSYGCVGVTWVNSGQYPTNRLAFAFFDEDKYKNELKNGRPRSGETRAEFEGRVAKDSFDEAKGFQRARDVASVMNKALENAHDEGAYLDNLKKELANGNDALRNEDARSPFYSALRNTPSFKDRNGGNHDPSKMKAVIYSKHFWSGQDRSGSSDKRKYGDPEAFRPDRGTGLVDMSRDRNIPRSPTSPGESFVNFDYGWFGAQTEADADKTVWTHGNHYHAPNGSLGAMHVYESKFRNWSDGYSDFDRGAYVVTFVPKSWNTAPDKVKQGWP | 0.8 RFU/sec/µg | 4.74 RFU/sec/µg | – | –
3 | AlaPro-mTGase from S. ladakanum (protein) APDSDERVTPPAEPLDRMPDPYRPSYGRAETIVNNYIRKWQQVYSHRDGRKQQMTEEQREWLSYGCVGVTWVNSGQYPTNRLAFAFFDEDKYKNELKNGRPRSGETRAEFEGRVAKDSFDEAKGFQRARDVASVMNKALENAHDEGAYLDNLKKELANGNDALRNEDARSPFYSALRNTPSFKDRNGGNHDPSKMKAVIYSKHFWSGQDRSGSSDKRKYGDPEAFRPDRGTGLVDMSRDRNIPRSPTSPGESFVNFDYGWFGAQTEADADKTVWTHGNHYHAPNGSLGAMHVYESKFRNWSDGYSDFDRGAYVVTFVPKSWNTAPDKVKQGWP | 1.02 RFU/sec/µg | 6.91 RFU/sec/µg | – | –
4 | GlyPro-mTGase from S. ladakanum (protein) GPDSDERVTPPAEPLDRMPDPYRPSYGRAETIVNNYIRKWQQVYSHRDGRKQQMTEEQREWLSYGCVGVTWVNSGQYPTNRLAFAFFDEDKYKNELKNGRPRSGETRAEFEGRVAKDSFDEAKGFQRARDVASVMNKALENAHDEGAYLDNLKKELANGNDALRNEDARSPFYSALRNTPSFKDRNGGNHDPSKMKAVIYSKHFWSGQDRSGSSDKRKYGDPEAFRPDRGTGLVDMSRDRNIPRSPTSPGESFVNFDYGWFGAQTEADADKTVWTHGNHYHAPNGSLGAMHVYESKFRNWSDGYSDFDRGAYVVTFVPKSWNTAPDKVKQGWP | 0.48 RFU/sec/µg | 4.25 RFU/sec/µg | 55% | –
5 | AlaPro-mTGase from S. mobaraensis (protein) APDSDDRVTPPAEPLDRMPDPYRPSYGRAETVVNNYIRKWQQVYSHRDGRKQQMTEEQREWLSYGCVGVTWVNSGQYPTNRLAFASFDEDRFKNELKNGRPRSGETRAEFEGRVAKESFDEEKGFQRAREVASVMNRALENAHDESAYLDNLKKELANGNDALRNEDARSPFYSALRNTPSFKERNGGNHDPSRMKAVIYSKHFWSGQDRSSSADKRKYGDPDAFRPAPGTGLVDMSRDRNIPRSPTSPGEGFVNFDYGWFGAQTEADADKTVWTHGNHYHAPNGSLGAMHVYESKFRNWSEGYSDFDRGAYVITFIPKSWNTAPDKVKQGWP | 1.56 RFU/sec/µg | 5.05 RFU/sec/µg | 33% | conversion rate, CE, reaction time 30 minutes [1]: conversion rate=32%; hGH conv. rate (%), reference of the separate experiment [1]: 39%
6 | mTGase from Streptomyces mobaraensis (protein) DSDDRVTPPAEPLDRMPDPYRPSYGRAETVVNNYIRKWQQVYSHRDGRKQQMTEEQREWLSYGCVGVTWVNSGQYPTNRLAFASFDEDRFKNELKNGRPRSGETRAEFEGRVAKESFDEEKGFQRAREVASVMNRALENAHDESAYLDNLKKELANGNDALRNEDARSPFYSALRNTPSFKERNGGNHDPSRMKAVIYSKHFWSGQDRSSSADKRKYGDPDAFRPAPGTGLVDMSRDRNIPRSPTSPGEGFVNFDYGWFGAQTEADADKTVWTHGNHYHAPNGSLGAMHVYESKFRNWSEGYSDFDRGAYVITFIPKSWNTAPDKVKQGWP | 0.98 RFU/sec/µg | 3.35 RFU/sec/µg | – | HPLC peak area of product-Q40 (hGHQ141N, P01241): area 296; Q141N (remaining substrate, normalized to 100) (normalized to 100) (hGHQ141N, P01241): 81; product-Q40 (normalized to 100) (normalized to 100) (hGHQ141N, P01241): 19; HPLC peak area of product-Q141 (hGHQ40N, P01241): area 1283; Q40N (remaining substrate, normalized to 100) (normalized to 100) (hGHQ40N, P01241): 29; product-Q141 (normalized to 100) (normalized to 100) (hGHQ40N, P01241): 71
7 | GlyPro-mTGase_Y75F from S. ladakanum (protein) GPDSDERVTPPAEPLDRMPDPYRPSYGRAETIVNNYIRKWQQVYSHRDGRKQQMTEEQREWLSYGCVGVTWVNSGQFPTNRLAFAFFDEDKYKNELKNGRPRSGETRAEFEGRVAKDSFDEAKGFQRARDVASVMNKALENAHDEGAYLDNLKKELANGNDALRNEDARSPFYSALRNTPSFKDRNGGNHDPSKMKAVIYSKHFWSGQDRSGSSDKRKYGDPEAFRPDRGTGLVDMSRDRNIPRSPTSPGESFVNFDYGWFGAQTEADADKTVWTHGNHYHAPNGSLGAMHVYESKFRNWSDGYSDFDRGAYVVTFVPKSWNTAPDKVKQGWP | – | – | 41% | hGH conversion rate, CE, reaction time 75 m [1]: hGH conversion rate=33%
8 | GlyPro-mTGase_Y75N from S. ladakanum (protein) GPDSDERVTPPAEPLDRMPDPYRPSYGRAETIVNNYIRKWQQVYSHRDGRKQQMTEEQREWLSYGCVGVTWVNSGQNPTNRLAFAFFDEDKYKNELKNGRPRSGETRAEFEGRVAKDSFDEAKGFQRARDVASVMNKALENAHDEGAYLDNLKKELANGNDALRNEDARSPFYSALRNTPSFKDRNGGNHDPSKMKAVIYSKHFWSGQDRSGSSDKRKYGDPEAFRPDRGTGLVDMSRDRNIPRSPTSPGESFVNFDYGWFGAQTEADADKTVWTHGNHYHAPNGSLGAMHVYESKFRNWSDGYSDFDRGAYVVTFVPKSWNTAPDKVKQGWP | – | – | 44% | hGH conversion rate, CE, reaction time 90 m [1]: hGH conversion rate=50%
9 | GlyPro-mTGase_Y62H_Y75N from S. ladakanum (protein) GPDSDERVTPPAEPLDRMPDPYRPSYGRAETIVNNYIRKWQQVYSHRDGRKQQMTEEQREWLSHGCVGVTWVNSGQNPTNRLAFAFFDEDKYKNELKNGRPRSGETRAEFEGRVAKDSFDEAKGFQRARDVASVMNKALENAHDEGAYLDNLKKELANGNDALRNEDARSPFYSALRNTPSFKDRNGGNHDPSKMKAVIYSKHFWSGQDRSGSSDKRKYGDPEAFRPDRGTGLVDMSRDRNIPRSPTSPGESFVNFDYGWFGAQTEADADKTVWTHGNHYHAPNGSLGAMHVYESKFRNWSDGYSDFDRGAYVVTFVPKSWNTAPDKVKQGWP | – | – | 38% | –
10 | GlyPro-mTGase_Y62H_Y75F from S. ladakanum (protein) GPDSDERVTPPAEPLDRMPDPYRPSYGRAETIVNNYIRKWQQVYSHRDGRKQQMTEEQREWLSHGCVGVTWVNSGQFPTNRLAFAFFDEDKYKNELKNGRPRSGETRAEFEGRVAKDSFDEAKGFQRARDVASVMNKALENAHDEGAYLDNLKKELANGNDALRNEDARSPFYSALRNTPSFKDRNGGNHDPSKMKAVIYSKHFWSGQDRSGSSDKRKYGDPEAFRPDRGTGLVDMSRDRNIPRSPTSPGESFVNFDYGWFGAQTEADADKTVWTHGNHYHAPNGSLGAMHVYESKFRNWSDGYSDFDRGAYVVTFVPKSWNTAPDKVTQGWP | – | – | 49.4% | RS (relative selectivity), separate experiment [1]: 7.6; Selectivity (Q141/Q40), CE, separate experiment [1]: 76.5; hGH conv. rate (%), separate experiment [1]: 38.1%
11 | Met-mTGase from S. mobaraensis (protein) MDSDDRVTPPAEPLDRMPDPYRPSYGRAETVVNNYIRKWQQVYSHRDGRKQQMTEEQREWLSYGCVGVTWVNSGQYPTNRLAFASFDEDRFKNELKNGRPRSGETRAEFEGRVAKESFDEEKGFQRAREVASVMNRALENAHDESAYLDNLKKELANGNDALRNEDARSPFYSALRNTPSFKERNGGNHDPSRMKAVIYSKHFWSGQDRSSSADKRKYGDPDAFRPAPGTGLVDMSRDRNIPRSPTSPGEGFVNFDYGWFGAQTEADADKTVWTHGNHYHAPNGSLGAMHVYESKFRNWSEGYSDFDRGAYVITFIPKSWNTAPDKVKQGWP | 1.24 RFU/sec/µg | 5.44 RFU/sec/µg | – | –
12 | GlyPro-mTGase from S. mobaraensis (protein) GPDSDDRVTPPAEPLDRMPDPYRPSYGRAETVVNNYIRKWQQVYSHRDGRKQQMTEEQREWLSYGCVGVTWVNSGQYPTNRLAFASFDEDRFKNELKNGRPRSGETRAEFEGRVAKESFDEEKGFQRAREVASVMNRALENAHDESAYLDNLKKELANGNDALRNEDARSPFYSALRNTPSFKERNGGNHDPSRMKAVIYSKHFWSGQDRSSSADKRKYGDPDAFRPAPGTGLVDMSRDRNIPRSPTSPGEGFVNFDYGWFGAQTEADADKTVWTHGNHYHAPNGSLGAMHVYESKFRNWSEGYSDFDRGAYVITFIPKSWNTAPDKVKQGWP | 1.13 RFU/sec/µg | 4.28 RFU/sec/µg | – | –
